Key:
[1] = target: T1, biotinylated human Sortilin monomer (human, UniProt Q99523 78-755, limits assumed, biotinylated (Sulfo-NHS-biotin)); assay: MSD-SET, Fab
T1 construct: monomer cut from the Fc fusion with IdeS; used unbiotinylated in solution in some formats; also called Bt-hSort; b-H Sort
Protocol: (§1) Antibodies (20 nM in PBS) were coated onto standard bind MSD-ECL plates overnight at 4° C. or at room temperature for 30 min. Plates were then blocked with 1% BSA for 30 min with shaking at 700 rpm, followed by three washes with wash buffer (PB SF+0.05% Tween 20). SET samples were applied and incubated on the plates for 150 s with shaking at 700 rpm followed by one wash. Antigen captured on a plate was detected with 250 ng/ml sulfotag-labeled streptavidin in PBSF by incubation on the plate for 3 min. The plates were washed three times with wash buffer and then read on the MSD Sector Imager 2400 instrument using 1× Read Buffer T with surfactant. The percent free antigen was plotted as a function of titrated antibody in Prism and fit to a quadratic equation to extract the KD. To improve throughput, liquid handling robots were used throughout MSD-SET experiments, including SET sample preparation.

[2] = target: T2, biotinylated mouse Sortilin monomer (mouse, UniProt Q6PHU5 74-754, limits assumed, biotinylated); assay: MSD-SET, Fab
T2 construct: also called Bt-msSort
Protocol: as §1

[3] = target: T1, biotinylated human Sortilin monomer; assay: ForteBio, Fab
Protocol: (§2) The affinity of the anti-Sortilin antibodies was determined by measuring their KD by ForteBio and MSD. […] Briefly, ForteBio affinity measurements were performed by loading immunoglobulins (IgGs) on-line onto AHQ sensors. Sensors were equilibrated off-line in assay buffer for 30 min and then monitored on-line for 60 seconds for baseline establishment. For avid binding measurement, sensors with loaded IgGs were exposed to 100 nM antigen (human or mouse Sortilin Fc fusion) for 3 min, afterwards they were transferred to assay buffer for 3 min for off-rate measurement. […] Monovalent binding measurements were obtained by loading human or mouse Sortilin Fc fusion antigens to AHQ sensor and followed by exposure to −100 nM Sortilin antibody Fab. […] Kinetics data were fit using a 1:1 binding model in the data analysis software provided by ForteBio.

[4] = target: T2, biotinylated mouse Sortilin monomer; assay: ForteBio, Fab
Protocol: as §2

[5] = target: T3, mouse Sortilin expressed on 293 / HEK293T cells (mouse, UniProt Q6PHU5 74-825); assay: FACS, HEK293T + msSort
T3 construct: full-length recombinant mouse Sortilin; also called mSort; msSort
Protocol: (§3) Antibodies were diluted in FACS buffer (PBS+2% FBS+0.01% NaAzide). After incubation on ice for 1 h, cells were washed three times in FACS buffer and incubated with anti-human PE conjugated secondary antibody (BD Biosciences, 1:100 dilution) for 30 min on ice. Then cells were washed twice in 200 ul FACS buffer, and subsequently analyzed on a FACS Canto or iQE FACS screening instrument (Intellicyt Corp).

[6] = target: T4, human Sortilin expressed on 293 / HEK293T cells (human, UniProt Q99523 78-830); assay: FACS, HEK293T + hSort
T4 construct: full-length recombinant human Sortilin; also called hSort; SORT1
Protocol: as §3

Binder	Kd [1] [nM]	Kd [2] [nM]	Kd [3] [nM]	Kd [4] [nM]	Kd [5] [nM]	Kd [6] [nM]
S-15-3 Fab (Fab, V domains shown, Fab by papain digestion) VH: QVQLVQSGAEVKKPGASVKVSCKASGYTFTSTYMSWVRQAPGQGLEWMGIINPYGGSTSYAQKFQGRVTMTRDTSTSTVYMELSSLRSEDTAVYYCARDPSGIAAAGPASRYYYGMDVWGQGTTVTVSS VL: EIVMTQSPATLSVSPGERATLSCRASQSVSSNLAWYQQKPGQAPRLLIYGASTRATGIPARFSGSGSGTEFTLTISSLQSEDFAVYYCQQARLGPWTFGGGTKVEIK	0.26	0.11	0.943	0.769	–	–
S-15-14 Fab (Fab, V domains shown, Fab by papain digestion) VH: QVQLVQSGAEVKKPGASVKVSCKASGYTFTSQYMSWVRQAPGQGLEWMGIINPYGGSTSYAQKFQGRVTMTRDTSTSTVYMELSSLRSEDTAVYYCARDPSGIAAAGPASRYYYGMDVWGQGTTVTVSS VL: EIVMTQSPATLSVSPGERATLSCRASQSVSSNLAWYQQKPGQAPRLLIYGASTRATGIPARFSGSGSGTEFTLTISSLQSEDFAVYYCQQARLGPWTFGGGTKVEIK	0.19	0.1	1.04	0.758	–	–
S-22-7 (antibody, V domains shown, IgG) VH: QVQLVQSGAEVKKPGSSVKVSCKASGGTFSSYAISWVRQAPGQGLEWMGGIIPGFGRANYAQKFQGRVTITADESTSTAYMELSSLRSEDTAVYYCARQGRKTGYYYYYGMDVWGQGTTVTVSS VL: DIQMTQSPSTLSASVGDRVTITCRASQSISSWLAWYQQKPGKAPKLLIYKASSLESGVPSRFSGSGSGTEFTLTISSLQPDDFATYYCQQADGHITFGGGTKVEIK	–	–	–	–	4.78	2.65
S-22-3 Fab (Fab, V domains shown, Fab by papain digestion) VH: QVQLVQSGAEVKKPGSSVKVSCKASGGTFRSYAISWVRQAPGQGLEWMGGIIPGFGTAWYAQKFQGRVTITADESTSTAYMELSSLRSEDTAVYYCARQGRKTGYYYYYGMDVWGQGTTVTVSS VL: DIQMTQSPSTLSASVGDRVTITCRASQSISSWLAWYQQKPGKAPKLLIYKASSLESGVPSRFSGSGSGTEFTLTISSLQPDDFATYYCQQADGHITFGGGTKVEIK	0.097	1.2	0.698	1.43	–	–
S-22-7 Fab (Fab, V domains shown, Fab by papain digestion) VH: QVQLVQSGAEVKKPGSSVKVSCKASGGTFSSYAISWVRQAPGQGLEWMGGIIPGFGRANYAQKFQGRVTITADESTSTAYMELSSLRSEDTAVYYCARQGRKTGYYYYYGMDVWGQGTTVTVSS VL: DIQMTQSPSTLSASVGDRVTITCRASQSISSWLAWYQQKPGKAPKLLIYKASSLESGVPSRFSGSGSGTEFTLTISSLQPDDFATYYCQQADGHITFGGGTKVEIK	0.098	0.57	0.508	0.751	–	–
S-22-9 (antibody, V domains shown, IgG) VH: QVQLVQSGAEVKKPGSSVKVSCKASGGTFRNYAISWVRQAPGQGLEWMGGIIPIGGWANYAQKFQGRVTITADESTSTAYMELSSLRSEDTAVYYCARQGRKTGYYYYYGMDVWGQGTTVTVSS VL: DIQMTQSPSTLSASVGDRVTITCRASQSISSWLAWYQQKPGKAPKLLIYKASSLESGVPSRFSGSGSGTEFTLTISSLQPDDFATYYCQQADGHITFGGGTKVEIK	–	–	–	–	5.12	0.81
S-22-9 Fab (Fab, V domains shown, Fab by papain digestion) VH: QVQLVQSGAEVKKPGSSVKVSCKASGGTFRNYAISWVRQAPGQGLEWMGGIIPIGGWANYAQKFQGRVTITADESTSTAYMELSSLRSEDTAVYYCARQGRKTGYYYYYGMDVWGQGTTVTVSS VL: DIQMTQSPSTLSASVGDRVTITCRASQSISSWLAWYQQKPGKAPKLLIYKASSLESGVPSRFSGSGSGTEFTLTISSLQPDDFATYYCQQADGHITFGGGTKVEIK	0.0048	–	0.575	3.29	–	–
S-2-11 Fab (Fab, V domains shown, Fab by papain digestion) VH: QVQLVQSGAEVKKPGASVKVSCKASGYTFLAYYMHWVRQAPGQGLEWMGWINPSWGSTSYAQKFQGRVTMTRDTSISTAYMELSRLRSDDTAVYYCARGKRSSGWYEGYGMDVWGQGTTVTVSS VL: DIQMTQSPSSLSASVGDRVTITCRASQSISSYLNWYQQKPGKAPKLLIYAASSLQSGVPSRFSGSGSGTDFTLTISSLQPEDFATYYCQQSDVSPITFGGGTKVEIK	0.011	–	0.261	7.59	–	–
